The target of test [1] is CBM3-CtCoh-CcsCoh-RfCoh synthetic mini-scaffoldin (C. thermocellum ATCC 27405 | C. cellulovorans ATCC 35296 | R. flavefaciens). The experiment in a line: pull-down; RAC pull-down: cell lysate supernatants of dockerin-containing enzymes (in slight excess) mixed with 0.5 mL cell lysate supernatant of CBM3-Scaf3, 2 mg RAC added, room temperature 5 min; RAC pellet washed three times in 100 mM HEPES pH 7.5, 50 mM NaCl, 1 mM CaCl2; 12% SDS-PAGE, band intensities.

The target is the same in test [2].

One may read the stoichiometry N as the number of molecules, sites or subunits per partner or assembly.

Sequence of CDP-CtDoc (A3DH67 whole entry): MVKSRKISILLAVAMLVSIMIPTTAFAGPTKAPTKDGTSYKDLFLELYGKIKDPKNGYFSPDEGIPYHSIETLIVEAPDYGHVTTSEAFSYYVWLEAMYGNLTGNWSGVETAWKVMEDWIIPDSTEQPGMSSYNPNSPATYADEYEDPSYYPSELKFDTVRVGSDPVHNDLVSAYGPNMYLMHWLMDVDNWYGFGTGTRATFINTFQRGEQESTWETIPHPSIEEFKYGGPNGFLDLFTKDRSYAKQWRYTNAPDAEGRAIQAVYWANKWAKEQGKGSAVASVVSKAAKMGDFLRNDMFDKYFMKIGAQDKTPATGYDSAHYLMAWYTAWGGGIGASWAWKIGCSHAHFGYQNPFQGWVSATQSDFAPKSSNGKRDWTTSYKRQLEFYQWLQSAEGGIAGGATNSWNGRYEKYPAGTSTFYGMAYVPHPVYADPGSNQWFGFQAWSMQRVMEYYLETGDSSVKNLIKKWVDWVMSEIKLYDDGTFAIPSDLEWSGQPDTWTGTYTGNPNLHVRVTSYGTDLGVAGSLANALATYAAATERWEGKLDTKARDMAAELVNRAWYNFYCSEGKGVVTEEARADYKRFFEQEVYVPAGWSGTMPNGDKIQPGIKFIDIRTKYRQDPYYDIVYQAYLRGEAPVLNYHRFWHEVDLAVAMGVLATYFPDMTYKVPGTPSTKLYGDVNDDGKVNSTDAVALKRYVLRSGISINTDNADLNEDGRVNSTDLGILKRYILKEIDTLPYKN

As for PGM-CcsDoc (enzyme), the stoichiometry N in test [1] amounted to 1. This substance displayed a specific activity of RAC immobilized CBM3-Scaf3/PGM-CcsDoc; 0.5 mL cell lysate supernatant of CBM3-Scaf3 mixed with PGM-CcsDoc supernatant, highest at 2 mL in test [2] of 23 U mL^−1.

The substance “CDP-RfDoc (from UniProt Q9AE53 787-879) (enzyme)” yielded a stoichiometry N in test [1] of 1. The substance also yielded a specific activity of RAC immobilized CBM3-Scaf3/CDP-RfDoc; 0.5 mL cell lysate supernatant of CBM3-Scaf3 mixed with CDP-RfDoc supernatant, highest at 2 mL in test [2] of 0.71 U mL^−1.

Turning to “CDP-CtDoc (from UniProt A3DH67 673-741) (enzyme)”, the stoichiometry N in test [1] was found to be 1. This substance also had a specific activity of RAC immobilized CBM3-Scaf3/CDP-CtDoc; 0.5 mL cell lysate supernatant of CBM3-Scaf3 mixed with different volumes of CDP-CtDoc supernatant, highest at 1 mL, no increase with excess in test [2] of 0.72 U mL^−1.

Substance “PGM-RfDoc (from UniProt Q9AE53 787-879) (enzyme)” registered a stoichiometry N in test [1] of 1. Besides, the specific activity of RAC immobilized CBM3-Scaf3/PGM-RfDoc; 0.5 mL cell lysate supernatant of CBM3-Scaf3 mixed with PGM-RfDoc supernatant, highest at 2 mL in test [2] amounted to 22.4 U mL^−1.

Values taken from publication PMC6849236.
